Reference: the supplement of paper PMC10724198
± gives the standard deviation of the averaged measurements.

System: Saccharomyces cerevisiae
Assay: protein stability index of tFT-peptide fusion (C-terminal peptide) (PSI (0-1 scale)); higher = more stable (slower turnover)
Conditions: genetic background: wild type; temperature: 30 C
Method: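 Multiplexed protein stability (MPS) profiling in S. cerevisiae. Random 12-aa peptides (tFT-X12 library) are fused to the C-terminus of a sfGFP-mCherry tandem fluorescent timer, after mCherry and a GGGS linker. Cells are FACS-sorted into 8 mCherry/sfGFP bins and deep-sequenced. The protein stability index (PSI) is the read-weighted bin average, scaled from 0 (unstable) to 1 (stable). Only peptides with >10 reads are reported; cells were grown at 30 °C in SC-His with glucose.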
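Note: PSI is a weighted mean of sequencing reads over stability bins, variants kept only with over 10 reads, mCherry proximal and sfGFP distal, peptide attached via GGGS linker.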

| Sequence | protein stability index |
| --- | --- |
| FTSPLPPVAPPL | 0.693 ± 0.03 |
| FTVCVIYSKPSQ | 0.5872 ± 0.0013 |
| FTWFGAFLSCFV | 0.61 ± 0.069 |
| FVADRLIFGKSL | 0.71 ± 0.044 |
| FVASVGVGGGVG | 0.58 ± 0.013 |
| FVGAAALSVWGG | 0.645 ± 0.0072 |
| FVLADLVPILFS | 0.7102 ± 0.0013 |
| FVLLGVRGVAGW | 0.709 ± 0.02 |
| FVLSVDLSVEGS | 0.585 ± 0.037 |
| FVNKRRGCRELE | 0.701 ± 0.0053 |
| FVQSMGVGLGWG | 0.694 ± 0.026 |
| FVRPPHTTHPHP | 0.681 ± 0.041 |
| FVSFFPFPFLLL | 0.482 ± 0.045 |
| FVSGLEMCRTCF | 0.672 ± 0.025 |
| FVSLVATASHWV | 0.568 ± 0.033 |
| FVSSFSCVGLVL | 0.644 ± 0.08 |
| FWGGGGGVGLAV | 0.683 ± 0.063 |
| FWMPKASALGAA | 0.655 ± 0.019 |
| FYPSRVPPLQSA | 0.662 ± 0.056 |
| FYREFNSSSVCT | 0.788 ± 0.24 |
| FYRPNLLNAGRL | 0.715 ± 0.023 |
| FYRWDTFRWTRG | 0.683 ± 0.01 |
| FYYAERGSVERQ | 0.641 ± 0.0095 |
| GACHNVGVGPLG | 0.67 ± 0.024 |
| GACPARGRFLRR | 0.753 ± 0.086 |

| Sequence | protein stability index |
| --- | --- |
| GACSPQTNDSSR | 0.709 ± 0.035 |
| GADPPGHSSDDS | 0.712 ± 0.11 |
| GADTSRSYRIGL | 0.757 ± 0.0085 |
| GAFCGGSSVFYL | 0.659 ± 0.01 |
| GAFRQGYCLSGL | 0.67 ± 0.025 |
| GAGAHCVSWLSN | 0.695 ± 0.0076 |
| GAGDGRGRIEGR | 0.674 ± 0.015 |
| GAGGCNVGWRIR | 0.7265 ± 0.0014 |
| GAGKGWARWLVW | 0.632 ± 0.041 |
| GAGMAGEVVGDG | 0.637 ± 0.026 |
| GAGWCDGGRGGV | 0.6747 ± 0.0014 |
| GAGWLSWEGGGD | 0.686 ± 0.04 |
| GALLLVPFFWGE | 0.668 ± 0.018 |
| GAPLALSVSFPG | 0.648 ± 0.014 |
| GAQSRQMRSLAQ | 0.65 ± 0.11 |
| GARAGLIDALLS | 0.675 ± 0.021 |
| GARGMGGLFFLG | 0.728 ± 0.053 |
| GARSRLFRWWVA | 0.601 ± 0.012 |
| GASDWVMLYWVV | 0.584 ± 0.0098 |
| GASGLRIIQVSW | 0.671 ± 0.0098 |
| GASGVYMLDAYA | 0.632 ± 0.058 |
| GASPRAYPLPPP | 0.707 ± 0.032 |
| GATGGAWGVWAG | 0.676 ± 0.019 |
| GAVARFRPCWPL | 0.633 ± 0.011 |
| GAVWLLFCGGVG | 0.555 ± 0.024 |

| Sequence | protein stability index |
| --- | --- |
| GCFFQPRWSLLS | 0.599 ± 0.0088 |
| GCFLDLVFRSRI | 0.668 ± 0.0074 |
| GCFLRHAPALRF | 0.735 ± 0.063 |
| GCGSYELLRSAS | 0.68 ± 0.012 |
| GCLDGLGLPCLS | 0.681 ± 0.079 |
| GCLGDRVKSPIV | 0.638 ± 0.068 |
| GCPHGTLFVSLE | 0.699 ± 0.065 |
| GCRARKSRRTPT | 0.664 ± 0.011 |
| GCRCWGVRVGCV | 0.5407 ± 0.003 |
| GCRGEWGWVGRG | 0.691 ± 0.017 |
| GCSCFLAGAFVL | 0.732 ± 0.038 |
| GCSQGGRRSGNE | 0.644 ± 0.029 |
| GDFFQRVVGGGG | 0.733 ± 0.16 |
| GDFFVGLEWRDI | 0.622 ± 0.13 |
| GDFILLCDFDPI | 0.712 ± 0.09 |
| GDFSLCPMFCAP | 0.677 ± 0.071 |
| GDGSNVSLFILF | 0.784 ± 0.13 |
| GDGWLSGVPEEL | 0.74 ± 0.017 |
| GDKKYRYGNKVF | 0.737 ± 0.086 |
| GDRRRVFGSEQR | 0.662 ± 0.088 |
| GDYKESAFRMDG | 0.761 ± 0.043 |
| GEAWWLRGGGER | 0.757 ± 0.03 |
| GEEGRNEQKQDA | 0.7249 ± 0.0011 |
| GEGERVCVGSEF | 0.745 ± 0.033 |
| GEGLWGGRGRRW | 0.687 ± 0.046 |

| Sequence | protein stability index |
| --- | --- |
| GEGPTGAKQDYV | 0.6239 ± 0.0023 |
| GEGRGLCNLVAG | 0.65 ± 0.025 |
| GEGTERLGKSTR | 0.651 ± 0.046 |
| GEKQVDGGDGQR | 0.6985 ± 0.0012 |
| GEKREGRKTRRD | 0.608 ± 0.046 |
| GERDWRAKRTRE | 0.692 ± 0.055 |
| GERGGKGHEQGL | 0.623 ± 0.043 |
| GERWSGVGEWVW | 0.739 ± 0.014 |
| GESRDEGRGVRA | 0.638 ± 0.069 |
| GEVIAYGSAWGL | 0.647 ± 0.014 |
| GEWGRVGVPGCS | 0.718 ± 0.043 |
| GEWRFCLGYRRR | 0.647 ± 0.018 |
| GFCCPMFLALFS | 0.587 ± 0.022 |
| GFCRWVRRDDCI | 0.693 ± 0.032 |
| GFCTVVGGVVIG | 0.7202 ± 0.0016 |
| GFFGDFIVFDFS | 0.777 ± 0.022 |
| GFGFLQIVSGWL | 0.608 ± 0.067 |
| GFGGWIVCLGGG | 0.669 ± 0.0096 |
| GFGSEGQDMVGL | 0.6658 ± 0.0027 |
| GFGSTTTRLALV | 0.662 ± 0.13 |
| GFGVAGLVGKGV | 0.662 ± 0.053 |
| GFIYRLCRISIP | 0.635 ± 0.025 |
| GFKEGRSYWRFY | 0.74 ± 0.034 |
| GFLIGRLGEGSG | 0.728 ± 0.023 |
| GFLPCKVVRTCV | 0.549 ± 0.055 |

| Sequence | protein stability index |
| --- | --- |
| GFLPSIVPPVPR | 0.753 ± 0.02 |
| GFLPVQGQGLVD | 0.688 ± 0.045 |
| GFRVSVGVVEGG | 0.6716 ± 0.0056 |
| GFSLSGRFFLRC | 0.708 ± 0.013 |
| GFSNKKNVPLTR | 0.568 ± 0.066 |
| GFSSVILMHMPC | 0.7534 ± 0.0048 |
| GFVFSRGLERPL | 0.675 ± 0.062 |
| GFVPGGGGRSSV | 0.681 ± 0.0092 |
| GFVRGDRSGGGG | 0.72 ± 0.0085 |
| GFVVCVFPLLLP | 0.563 ± 0.029 |
| GFWGSRTSGSIP | 0.7335 ± 0.007 |
| GGAEACSDRGGG | 0.704 ± 0.018 |
| GGAEGLHVRDVV | 0.722 ± 0.051 |
| GGAGGGVWGGGV | 0.735 ± 0.014 |
| GGAGGHCSHEWS | 0.728 ± 0.039 |
| GGAMYVSFFDKF | 0.68 ± 0.021 |
| GGARESGRVEQV | 0.676 ± 0.011 |
| GGARPVWDPGFG | 0.684 ± 0.0031 |
| GGCGGVWGACVV | 0.709 ± 0.023 |
| GGCVTRYSSQRA | 0.656 ± 0.041 |
| GGCVVGTGRRRY | 0.6114 ± 0.0061 |
| GGDAGGVFSRLC | 0.632 ± 0.0096 |
| GGDGGSDHHRER | 0.6856 ± 0.0044 |
| GGEGGRALGVGR | 0.673 ± 0.028 |
| GGEGLRGAAWGI | 0.653 ± 0.12 |

| Sequence | protein stability index |
| --- | --- |
| GGEICPARECGA | 0.648 ± 0.042 |
| GGFGAVPEVRAR | 0.725 ± 0.035 |
| GGFICRHGVGRG | 0.708 ± 0.011 |
| GGFLMVSPMDWA | 0.703 ± 0.026 |
| GGFTSIRLTHLS | 0.698 ± 0.043 |
| GGGAFVGLDFGG | 0.684 ± 0.0071 |
| GGGAGGAVRRAS | 0.6932 ± 0.005 |
| GGGAGGGGRRGR | 0.747 ± 0.01 |
| GGGAGRSWFVGC | 0.711 ± 0.042 |
| GGGARPTLDRAR | 0.637 ± 0.028 |
| GGGAWGGMCGVV | 0.717 ± 0.047 |
| GGGDGIHRYAGG | 0.7 ± 0.035 |
| GGGERCEGVWVE | 0.579 ± 0.01 |
| GGGEWGLGVRPR | 0.725 ± 0.008 |
| GGGGEVARSAHR | 0.6696 ± 0.0056 |
| GGGGGERGRGGS | 0.708 ± 0.02 |
| GGGGGGLTGRVG | 0.711 ± 0.009 |
| GGGGGSSWVGYG | 0.8981 ± 0.0027 |
| GGGGGWGGGGGG | 0.7 ± 0.087 |
| GGGGHMGGRLVK | 0.692 ± 0.039 |
| GGGGKGTSGQGR | 0.688 ± 0.017 |
| GGGGLDGYGGGG | 0.69 ± 0.029 |
| GGGGLGWWEWDR | 0.736 ± 0.071 |
| GGGGPGGLVGAA | 0.662 ± 0.035 |
| GGGGSRRGVGDR | 0.687 ± 0.013 |

| Sequence | protein stability index |
| --- | --- |
| GGGGTGTSGQGR | 0.718 ± 0.046 |
| GGGIVGWFCRGR | 0.675 ± 0.068 |
| GGGLGGGGGVWG | 0.7104 ± 0.004 |
| GGGLGGVRGGVR | 0.628 ± 0.074 |
| GGGLMVARFGPS | 0.664 ± 0.037 |
| GGGLREARVLRG | 0.711 ± 0.015 |
| GGGLSGEGGLGR | 0.639 ± 0.014 |
| GGGLWLYKKLVF | 0.682 ± 0.13 |
| GGGNEDCLRGGY | 0.651 ± 0.056 |
| GGGNGGTGCDWG | 0.629 ± 0.018 |
| GGGPWGRVGRGG | 0.679 ± 0.037 |
| GGGRALEGAAGP | 0.583 ± 0.063 |
| GGGRGGGGGGDA | 0.697 ± 0.038 |
| GGGRGLRCNGLG | 0.738 ± 0.1 |
| GGGRGNRGEKMT | 0.67 ± 0.012 |
| GGGRGRAGVGVW | 0.714 ± 0.05 |
| GGGVGASMSGTP | 0.689 ± 0.0069 |
| GGGVGEWCLVRL | 0.6849 ± 4.4e-05 |
| GGGVWQWERGRG | 0.811 ± 0.14 |
| GGGWCSGYLAGV | 0.679 ± 0.056 |
| GGGWSRGGSGAG | 0.687 ± 0.011 |
| GGIPINVLPGCR | 0.739 ± 0.15 |
| GGLGVGPGWWGP | 0.733 ± 0.043 |
| GGLGWGARQGAL | 0.68 ± 0.024 |
| GGLICRHGGGRG | 0.706 ± 0.02 |

| Sequence | protein stability index |
| --- | --- |
| GGLWAAAGKARV | 0.692 ± 0.026 |
| GGNDIIQNRKGK | 0.674 ± 0.039 |
| GGNGIVPVWMNF | 0.695 ± 0.041 |
| GGPAWGRVGMYW | 0.666 ± 0.047 |
| GGPVGGGGGSGE | 0.641 ± 0.032 |
| GGQGKWPGTPLL | 0.738 ± 0.022 |
| GGRCGREGGAER | 0.61 ± 0.054 |
| GGRCWMCVAVTE | 0.591 ± 0.019 |
| GGRGGATRRGSL | 0.764 ± 0.055 |
| GGRGGEVVLWQA | 0.726 ± 0.12 |
| GGRGREGRPPGP | 0.641 ± 0.034 |
| GGRNGLGITGGE | 0.648 ± 0.034 |
| GGRRLKDAETWA | 0.615 ± 0.029 |
| GGRRTEIYTGPA | 0.703 ± 0.019 |
| GGRVWAGGYLGA | 0.707 ± 0.068 |
| GGRWGDSGMGVV | 0.715 ± 0.026 |
| GGSCGFGLGAGG | 0.665 ± 0.041 |
| GGSDLLIGFWPC | 0.716 ± 0.027 |
| GGSGPSGSPRRR | 0.727 ± 0.054 |
| GGSSLSSSSVIR | 0.675 ± 0.036 |
| GGSSWSLGGGGG | 0.7406 ± 0.0023 |
